Data taken from patent US20030191048A1.

Biological target: c-Kit (CD 117) receptor tyrosine kinase on DMVEC (human) (UniProt P10721)
Assay: cell-based or functional assay

c-Kit (CD 117) receptor tyrosine kinase on DMVEC (human), sequence (P10721 26-976): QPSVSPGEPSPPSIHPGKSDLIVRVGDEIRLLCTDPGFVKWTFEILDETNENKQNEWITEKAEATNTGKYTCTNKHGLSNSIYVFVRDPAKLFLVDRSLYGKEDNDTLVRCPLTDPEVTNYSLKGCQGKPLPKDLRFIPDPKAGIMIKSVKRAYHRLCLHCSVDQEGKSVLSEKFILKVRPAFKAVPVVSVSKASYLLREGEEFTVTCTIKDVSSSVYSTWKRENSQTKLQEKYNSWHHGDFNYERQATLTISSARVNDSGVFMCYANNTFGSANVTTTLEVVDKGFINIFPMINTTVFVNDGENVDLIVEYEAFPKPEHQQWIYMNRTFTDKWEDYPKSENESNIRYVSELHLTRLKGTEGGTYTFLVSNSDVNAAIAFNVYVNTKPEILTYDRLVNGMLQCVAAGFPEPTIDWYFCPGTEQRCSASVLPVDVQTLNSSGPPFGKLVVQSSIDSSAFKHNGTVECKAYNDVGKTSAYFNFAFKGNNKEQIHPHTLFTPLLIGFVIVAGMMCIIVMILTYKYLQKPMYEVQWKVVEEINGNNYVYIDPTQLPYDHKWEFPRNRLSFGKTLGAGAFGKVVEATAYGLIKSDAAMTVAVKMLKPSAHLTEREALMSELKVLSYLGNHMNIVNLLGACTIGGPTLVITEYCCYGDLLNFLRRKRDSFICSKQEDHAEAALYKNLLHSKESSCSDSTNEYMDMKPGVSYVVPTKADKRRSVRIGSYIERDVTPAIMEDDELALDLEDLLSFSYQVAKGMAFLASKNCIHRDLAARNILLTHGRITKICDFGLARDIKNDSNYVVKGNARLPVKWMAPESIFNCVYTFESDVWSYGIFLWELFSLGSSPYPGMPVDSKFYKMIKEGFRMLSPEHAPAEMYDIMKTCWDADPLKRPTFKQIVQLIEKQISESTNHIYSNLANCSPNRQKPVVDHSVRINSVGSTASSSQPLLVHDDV

SCF dose giving maximal proliferation (XTT-based assay), mock- and KSHV-infected DMVEC: 50 to 100 ng/mL
proliferation (XTT-based assay), increase over basal proliferation, KSHV-infected DMVEC: < 85%
proliferation (XTT-based assay), increase over basal proliferation, mock-infected DMVEC: < 40%
Substance: recombinant stem cell factor (SCF) (from UniProt P21583 26-189) (ligand)
